Values joined by “and” are separate entries in the source; they are usually repeats but may differ in a detail not shown here. Identical values can stand only once. Where only a bound is given, the exact number is not on record here.

For test [1], the target named is SARS-CoV-2 spike on pseudovirus (SARS-CoV-2, UniProt P0DTC2 14-1273). As to the kind of experiment: cell-based or functional assay.
The next test concerns the target T1, BSA (UniProt P02769 25-607).
T1 construct: also called control protein
The test is described as follows: ELISA, 1 µg/ml coated BSA, 1 µg/ml VHH-hFc.

A further test concerns the target T2, SARS-CoV S1 (SARS-CoV, UniProt P59594 14-667).
T2 construct: domain: S1; also called SARS-CoV S1 protein
The test is described as follows: ELISA, 1 µg/ml coated antigen, 1 µg/ml VHH-hFc.

A further test concerns the target SARS-CoV-2 RBD (SARS-CoV-2, UniProt P0DTC2 319-541). The test is described as follows: monoclonal phage ELISA, drawn table of OD450 values.
Another test has as its target T3, SARS-CoV-2 S trimer (SARS-CoV-2, UniProt P0DTC2 16-1213).
T3 construct: also called SARS-CoV-2 S protein; S homotrimer protein
Described as above.

Test [2] has as its target T4, SARS-CoV S protein trimer expressed on human A431 cells (SARS-CoV, UniProt P59594 14-1255).
T4 construct: whole, on cells; also called S protein of SARS-CoV
The test is described as follows: flow cytometry on A431 cells expressing SARS-CoV S protein trimer (FIG. 3B).

For test [3], the target named is T4, SARS-CoV S protein trimer expressed on …. As to the kind of experiment: flow cytometry on A431 cells expressing SARS-CoV S (A431-CoV-S).
Test [4] has as its target T5, RBD-mFc (SARS-CoV-2, UniProt P0DTC2 319-541).
Test [5] addresses T5, RBD-mFc. The source holds these as a separate data set.

T1 sequence (P02769 25-607 limits assumed): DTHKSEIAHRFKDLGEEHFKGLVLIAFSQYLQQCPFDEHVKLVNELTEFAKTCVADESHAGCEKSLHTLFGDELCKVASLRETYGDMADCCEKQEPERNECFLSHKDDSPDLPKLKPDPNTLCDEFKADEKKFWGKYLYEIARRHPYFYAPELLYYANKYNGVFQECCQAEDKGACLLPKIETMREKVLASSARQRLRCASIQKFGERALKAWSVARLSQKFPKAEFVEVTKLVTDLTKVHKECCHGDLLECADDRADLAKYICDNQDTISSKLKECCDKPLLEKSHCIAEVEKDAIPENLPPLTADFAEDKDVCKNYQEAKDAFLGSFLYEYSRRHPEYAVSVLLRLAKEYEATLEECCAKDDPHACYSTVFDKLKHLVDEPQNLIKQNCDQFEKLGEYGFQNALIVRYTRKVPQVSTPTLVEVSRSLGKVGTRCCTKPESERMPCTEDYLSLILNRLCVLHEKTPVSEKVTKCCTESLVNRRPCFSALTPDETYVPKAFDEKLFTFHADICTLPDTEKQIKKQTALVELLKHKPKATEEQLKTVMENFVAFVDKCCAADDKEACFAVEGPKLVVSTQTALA

B1: 7A5 VHH-hFc (Fc fusion)
chain: AVQLVESGGGLVQPGGSLRLSCAASGFTFSSYYMSWVRQAPGKGLEWVSTINSRGSSTYYADSVKGRFTISRDNAKNTLYLQMSSLKSEDTALYYCAIGRLYSVKGQGTQVTVSS
notes: also called NCI-CoV-7A5 VHH-hFc fusion protein
In the case of B1, the “IC50, SARS-CoV-2 spike pseudovirus neutralization, repeated assay (FIGS. 9A-9F)” value (“IC50 … (FIGS. 9A-9F)” below) in test [1] is 3430 nM. For the same molecule, the binding result in the test with BSA and with SARS-CoV S1 was “binds” throughout.

B2: NCI-CoV-7E7 (VHH)
VHH: AVQLVDSGGGSVQSGGSLRLSCVASGYTYSIYNMGWFRQAPGKGLEWVSGINSDGSNTYYADSVKGRFTISRDNAKNTLYLQMNSLKSEDTALYYCATLPICSGGYCPPGYWGQGTQVTVSS
As for B2, the OD450 was determined as 1 with SARS-CoV-2 RBD and 0.57 with SARS-CoV-2 S trimer.

B3: 1H6 VHH-hFc (Fc fusion)
chain: AVQLVDSGGGSVQAGGSLNLSCVASGTTLRNGCMAWFRQVPGKEREVVAIIIRATSYTDYADSVKGRFTISQDNAKNTVYLQMKSLTPEDTATYYCAATLYRVNCAKREFDKWGQGTQVTVSS
notes: also called 1H6-hFc; NCI-CoV-1H6 VHH-hFc fusion protein
B3 registered a Kd in the test with SARS-CoV-2 of 37 nM. For the same molecule, the binding result in the test with SARS-CoV S1 was “no binding (tested: 1 µg/ml)”.

B4: 8A2 VHH-hFc (Fc fusion)
chain: AVQLVDSGGGSVQAGGSLRLSCAASGYTYSICTMGWYRQAPGEGLEWVSGINADGSNTHYTDSVKGRFTISRDNAKKTLYLQMNSLKPEDTAIYYCAAHGTYDKYAPCGGFAGTYTYWGQGTQVTVSS
notes: also called NCI-CoV-8A2 VHH-hFc
For the molecule B4, the Kd with SARS-CoV-2 amounted to 0.26 nM. The binding result in [2] is “no binding”. In addition, the “percent of cells right of the dashed gate line” value (from here on “percent”) in test [3] came out at 59.2%.

B5: 1B5 VHH-hFc (Fc fusion)
chain: DVQLVESGGGSVQAGGSLRLSCTGSRYTYSTYCMGWFRQAPGKEEEAVAIINSGGGEPYYGDSVKGRFTISQDRAKNTVYLQMDGLQPDDTAIYYCVAADSHNSRCYLGRSYVNYWGQGTQVTVSS
notes: also called 1B5-hFc; NCI-CoV-1B5 VHH-hFc fusion protein
On to B5, for which the 50% inhibitory concentration (IC50) with RBD-mFc [4] was below 0.001 µg/mL. The “IC50 (read off the curve)” value in the test with RBD-mFc [5] was around 0.3 µg/mL. The same molecule returned a dissociation constant (Kd) with SARS-CoV-2 of 0.1 nM. Moreover, in [1], the “IC50, SARS-CoV-2 spike pseudovirus neutralization on HEK 293T-hACE2 cells” value was 6.6 nM and 0.55 µg/ml; the “IC50 … (FIGS. 9A-9F)” value was determined as 7.6 nM. Further, the binding result in the test with BSA is “no binding (tested: 1 µg/ml)”. The “percent” value in [3] stood at 98.3%.

B6: 3E8 VHH-hFc (Fc fusion)
chain: QVQLVESGGGLVQAGGSLRLSCATSGFTFSGGYMAWVRQVPGKGLEWVANSIYDGSTYYSDAVKGRFTVSQDNAENTVYLEMNSLEPEDTAMYYCAAGWNGGPWSRTNAYIYWGQGTQVTVSS
notes: also called NCI-CoV-3E8 VHH-hFc fusion protein
Turning to B6, the “IC50 … (FIGS. 9A-9F)” value in [1] was 1170 nM. In addition, the binding result with BSA was “no binding (tested: 1 µg/ml)”; in the test with SARS-CoV S1, “binds”.

B7: 7A3 VHH-hFc (Fc fusion)
chain: QVQLVESGGGSVQPGGSLRLSCVVSGYTSSSRYMGWFRQVPGKGLEWVSGIKRDGTNTYYADSVKGRFTISQDNAKNTVYLQMNSLKPEDTAMYYCAAGSWYNQWGYSMDYWGKGTQVTVSS
notes: also called 7A3-hFc; NCI-CoV-7A3 VHH-hFc fusion protein
In the test with SARS-CoV-2, B7 had a dissociation constant Kd of 0.2 nM. Further, the “percent” value in [3] is 92.1%.

Values taken from patent US20230391852A1 (US Dept. of Health and Human Services, published 2023).
